According to PMC12749841 (Nature Communications, 2025):

Target: importin β (human, UniProt Q14974 1-876)
Assay: cryo-EM structure

Sequence of importin β (Q14974 whole entry): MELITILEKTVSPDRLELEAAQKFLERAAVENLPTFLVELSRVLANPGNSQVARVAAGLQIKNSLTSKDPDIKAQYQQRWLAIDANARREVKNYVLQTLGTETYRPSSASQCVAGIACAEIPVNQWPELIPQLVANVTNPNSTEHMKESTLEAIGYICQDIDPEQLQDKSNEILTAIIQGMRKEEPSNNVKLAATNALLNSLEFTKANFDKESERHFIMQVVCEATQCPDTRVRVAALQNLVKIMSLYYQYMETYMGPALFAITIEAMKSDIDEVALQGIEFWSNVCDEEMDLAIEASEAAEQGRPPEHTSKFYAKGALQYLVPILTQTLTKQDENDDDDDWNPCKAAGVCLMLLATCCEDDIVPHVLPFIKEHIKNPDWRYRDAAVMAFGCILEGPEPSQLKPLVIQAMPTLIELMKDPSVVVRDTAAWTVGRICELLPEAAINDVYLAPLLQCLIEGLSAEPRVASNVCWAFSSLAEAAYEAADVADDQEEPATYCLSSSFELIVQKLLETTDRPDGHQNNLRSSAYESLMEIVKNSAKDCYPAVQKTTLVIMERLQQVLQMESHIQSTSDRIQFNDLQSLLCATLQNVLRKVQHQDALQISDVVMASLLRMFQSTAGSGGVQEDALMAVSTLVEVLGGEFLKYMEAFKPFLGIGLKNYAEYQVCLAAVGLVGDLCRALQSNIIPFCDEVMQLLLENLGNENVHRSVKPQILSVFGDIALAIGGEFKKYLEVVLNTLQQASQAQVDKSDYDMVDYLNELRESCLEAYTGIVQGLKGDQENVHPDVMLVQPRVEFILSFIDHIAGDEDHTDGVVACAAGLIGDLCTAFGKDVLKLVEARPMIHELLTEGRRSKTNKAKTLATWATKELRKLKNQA

- binding result: binds
B1: importin α1 IBB domain (res 1–65) fused to 6xHis Maltose Binding Protein (domain or fragment)
chain: not shown
